This is an account of results in patent US20250027114.

Changes are numbered by the printed parent chain.

The subject of data set [1] is T1, Nme2Cas9 (Nme2-ABE8e) (Neisseria meningitidis).
T1 sequence: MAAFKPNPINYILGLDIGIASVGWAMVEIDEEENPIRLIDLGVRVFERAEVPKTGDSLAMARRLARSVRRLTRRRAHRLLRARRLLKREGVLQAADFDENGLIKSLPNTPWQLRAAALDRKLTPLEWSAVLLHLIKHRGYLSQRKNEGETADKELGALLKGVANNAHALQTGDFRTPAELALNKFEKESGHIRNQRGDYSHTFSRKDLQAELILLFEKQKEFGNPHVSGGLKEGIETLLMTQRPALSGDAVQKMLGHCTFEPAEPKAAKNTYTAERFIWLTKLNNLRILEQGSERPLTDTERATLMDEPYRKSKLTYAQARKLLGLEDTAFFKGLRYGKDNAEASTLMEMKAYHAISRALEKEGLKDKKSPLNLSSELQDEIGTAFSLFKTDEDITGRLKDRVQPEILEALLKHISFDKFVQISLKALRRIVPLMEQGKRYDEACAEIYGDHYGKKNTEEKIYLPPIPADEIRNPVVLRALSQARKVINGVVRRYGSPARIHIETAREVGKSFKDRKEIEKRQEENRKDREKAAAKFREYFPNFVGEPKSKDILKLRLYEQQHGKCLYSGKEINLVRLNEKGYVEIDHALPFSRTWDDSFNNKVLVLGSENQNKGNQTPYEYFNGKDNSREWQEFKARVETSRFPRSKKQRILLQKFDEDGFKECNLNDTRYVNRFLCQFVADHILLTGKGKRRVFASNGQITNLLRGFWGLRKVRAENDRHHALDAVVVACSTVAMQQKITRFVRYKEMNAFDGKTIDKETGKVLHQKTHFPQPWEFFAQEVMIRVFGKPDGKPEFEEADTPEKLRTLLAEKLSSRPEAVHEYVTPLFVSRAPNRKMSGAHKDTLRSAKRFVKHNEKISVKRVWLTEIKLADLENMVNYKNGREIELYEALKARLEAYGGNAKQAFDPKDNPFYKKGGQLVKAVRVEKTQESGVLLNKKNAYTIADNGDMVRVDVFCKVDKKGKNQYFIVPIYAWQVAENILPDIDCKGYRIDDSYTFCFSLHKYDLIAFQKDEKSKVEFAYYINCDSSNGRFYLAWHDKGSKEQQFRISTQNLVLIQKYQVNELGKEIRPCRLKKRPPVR
Kind of data set: cell_activity. The conditions noted are these: PAM N4YNC average, E. coli ABE-PPA; 14% on N4YND.

The subject of data set [2] is T2, E1-2-ABE8e (Neisseria meningitidis).
T2 sequence: T1 sequence with Y441C, K581R, T808I, D844G, I1025S, R1033K, S1043R, L1075M
Kind of data set: cell_activity. As to conditions: PAM N4YNC average, E. coli ABE-PPA; 14% on N4YND.

As for “AUGGCCCAGACUGAGCACGUGAGGUUGUAGCUCCCUUUCUCAUUUCGGAAACGAAAUGAGAACCGUUGCUACAAUAAGGCCGUCUGAAAAGAUGUGCCGCAACGCUCUGCCCCUUAAAGCUUCUGCUUUAAGGGGCAUCGUUUA / ATGGCCCAGACTGAGCACGTGA / TCACGTGCTCAGTCTGGGCCAT [ABE-PPA sgRNA ; ABE-PPA protospacer library target]”, the activity (% A-to-G conversion) in data set [1] was 18; in data set [2] it was 29.
